The values that follow come from article PMC12005725.

Experiment [1] addresses microtubule (polymerized tubulin, taxol-stabilised) (UniProt P02550).
The target is the same in experiment [2]. Briefly: stopped-flow turbidity (light scattering); oxidized condition (10 uM CuCl2, 20 uM o-phenanthroline); nucleotide-free complex of 3.2 uM kinesin and 4 uM microtubule (20 uM taxol, 0.1 U/ml apyrase), 150 mM KCl added, rapidly mixed with 1 mM ATP plus 150 mM KCl; BRB25 pH 6.8, 25 C; turbidity at 340 nm, burst equation.
Experiment [3] addresses axonemes (purified from sea urchin sperm flagella) (sea urchin). The experiment can be described thus: single-molecule fluorescence microscopy (TIRF), dwell time; reducing condition (70 mM 2-mercaptoethanol); axonemes on the slide, 200 or 500 pM GFP-kinesin in solution, 1 mM ATP, 100 mM KCl, BRB12; 10 ms resolution; k2_SMF is the inverse of the mean dwell time.
Experiment [4] concerns the target microtubule (polymerized tubulin, taxol-stabilised) (UniProt P02550). Briefly: single-molecule fluorescence (smFRET with Alexa-ATP, TIRF) on microtubules; microtubules on a poly-L-lysine-coated slide, 100 pM ATTO488-kinesin, 500 nM Alexa Fluor 647 ATP, 150 mM KCl, 20 uM taxol, BRB12, 22 C, 10 ms exposure.
The target of experiment [5] is axonemes (purified from sea urchin sperm flagella) (sea urchin). Briefly: single-molecule fluorescence microscopy (TIRF), dwell time; oxidized condition (no 2-mercaptoethanol); axonemes on the slide, 200 or 500 pM GFP-kinesin in solution, 1 mM ATP, 100 mM KCl, BRB12; 10 ms resolution; k2_SMF is the inverse of the mean dwell time.
Experiment [6] concerns the target microtubule (polymerized tubulin, taxol-stabilised) (UniProt P02550). This is another data set of the same source.
For experiment [7] the target is unchanged. Briefly: high-speed total internal reflection dark-field microscopy of gold-labeled kinesin; microtubules held on glass by protein A and anti-alpha-tubulin antibody, 3 nM gold-labeled kinesin, BRB12 with 20 mM KCl and 1-1000 uM ATP, 24-26 C, 20,000 fps; bound and unbound states of the gold-labeled WT head while the E236A head stays bound.
The target is the same in experiment [8]. Briefly: stopped-flow turbidity (light scattering); reduced condition (10 mM DTT); nucleotide-free complex of 3.2 uM kinesin and 4 uM microtubule (20 uM taxol, 0.1 U/ml apyrase), 150 mM KCl added, rapidly mixed with 1 mM ATP plus 150 mM KCl; BRB25 pH 6.8, 25 C; turbidity at 340 nm, burst equation.

Sequence of UniProt P02550 (P02550 whole entry, looked up): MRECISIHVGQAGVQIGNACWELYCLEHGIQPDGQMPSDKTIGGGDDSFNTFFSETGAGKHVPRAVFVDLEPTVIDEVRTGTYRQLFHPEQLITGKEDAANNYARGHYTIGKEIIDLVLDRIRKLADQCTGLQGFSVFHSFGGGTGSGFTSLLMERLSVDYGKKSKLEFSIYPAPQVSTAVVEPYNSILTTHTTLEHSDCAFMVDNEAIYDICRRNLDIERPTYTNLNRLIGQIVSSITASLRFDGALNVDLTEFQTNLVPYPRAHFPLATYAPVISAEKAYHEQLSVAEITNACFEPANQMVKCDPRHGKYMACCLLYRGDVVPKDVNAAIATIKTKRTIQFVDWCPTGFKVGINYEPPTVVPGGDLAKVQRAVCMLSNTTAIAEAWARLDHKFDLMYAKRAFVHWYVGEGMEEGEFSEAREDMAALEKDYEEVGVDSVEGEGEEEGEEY

For “Cys-light K339 C4/C330 monomer, oxidized (disulfide-crosslinked between cover strand and neck linker) (from UniProt P33176 1-339) (domain or fragment)”, the Km(MT) of the steady-state microtubule-activated ATPase, oxidized condition in experiment [1] turned out to be 8.36 µM. Further, the k2 (ATP-induced dissociation rate from microtubule, light scattering) in experiment [2] was 80.8 s⁻¹.
Regarding “GFP-fused K339 Cys-light C47/C328 kinesin, reduced (from UniProt P33176 1-339) (domain or fragment)”, the k2 SMF (inverse of the mean dwell time on the microtubule, 1 mM ATP) in experiment [3] was 42.1 s⁻¹.
On to “GFP-fused K339 Cys-light C222/C334 kinesin, reduced (from UniProt P33176 1-339) (domain or fragment)”, for which, in experiment [3], the k2 SMF (inverse of the mean dwell time on the microtubule, 1 mM ATP) was 47.2 s⁻¹.
With “ATTO488-labeled 'wild-type' monomer (Cys-light K349 monomeric kinesin with Cys55) (from UniProt P33176 1-349) (domain or fragment)”, the inverse of the mean dwell time for head dissociation (Alexa-ATP-bound state ending in detachment from the microtubule) in experiment [4] stood at 89.7 s^–1.
Consider “Cys-light K339 C222/C334 monomer, oxidized (disulfide-crosslinked; rear head crosslink) (from UniProt P33176 1-339) (domain or fragment)”, for which, in experiment [1], the Km(MT) of the steady-state microtubule-activated ATPase, oxidized condition stood at 0.2 µM.
The substance “GFP-fused K339 Cys-light C4/C330 kinesin, oxidized (crosslinked) (from UniProt P33176 1-339) (domain or fragment)” displayed a k2 SMF (inverse of the mean dwell time on the microtubule, 1 mM ATP) in experiment [5] of 58.4 s⁻¹.
Regarding “E236A–WT heterodimer with a 12 poly-Gly insertion (G12), WT head labeled with a gold nanoparticle (from UniProt P33176 1-490; P33176 1-490) (complex)”, the Km (MT) of the microtubule-activated ATPase of the heterodimer (G12) in experiment [6] was determined as 0.14 µM. In addition, in experiment [7], the dwell time of the WT head bound at the front-binding site at 1 mM ATP was 111 ms; the dwell time of the WT head bound at the rear-tubulin-binding site at 1 mM ATP was 19 ms; the kcat of the inverse bound dwell time against ATP, taken as the ATP-induced detachment rate k2 of the front WT head turned out to be 9.3 s^–1.
In the case of “GFP-fused K339 Cys-light C47/C328 kinesin, oxidized (front head crosslink) (from UniProt P33176 1-339) (domain or fragment)”, in experiment [5], the fold increase of the binding frequency to the microtubule after crosslinking worked out at 4 fold and the k2 SMF (inverse of the mean dwell time on the microtubule, 1 mM ATP) amounted to 2.3 s⁻¹.
With “Cys-light K339 C47/C328 monomer, oxidized (disulfide-crosslinked; front head crosslink) (from UniProt P33176 1-339) (domain or fragment)”, in experiment [1], the Km(MT) of the steady-state microtubule-activated ATPase, oxidized condition came out at 0.13 µM. The k2 (ATP-induced dissociation rate from microtubule, light scattering) in experiment [2] worked out at 7 s⁻¹.
Regarding “Cys-light K339 monomeric kinesin with no cysteine introduction (WT) (from UniProt P33176 1-339) (domain or fragment)”, in experiment [1], the Km(MT) of the steady-state microtubule-activated ATPase, oxidized condition amounted to 0.36 µM and the Km(MT) of the steady-state microtubule-activated ATPase, reduced condition was determined as 0.31 µM. Also, the k2 (ATP-induced dissociation rate from microtubule, light scattering) in experiment [8] is 52.1 s⁻¹. Also, the k2 (ATP-induced dissociation rate from microtubule, light scattering) in experiment [2] was 59.1 s⁻¹.
On to “E236A–WT heterodimer without neck-linker extension (G0), WT head labeled with a gold nanoparticle (from UniProt P33176 1-490; P33176 1-490) (complex)”, for which the Km (MT) of the microtubule-activated ATPase of the heterodimer (G0) in experiment [6] turned out to be 0.54 µM. Besides, in experiment [7], the dwell time of the microtubule-bound state of the front WT head at 10 µM ATP turned out to be 1.1 s; the kcat of the inverse bound dwell time against ATP, taken as the ATP-promoted detachment rate k2 of the front WT head was 6.3 s^–1; the mean dwell time of the microtubule-bound state of the front WT head at 1 mM ATP is 160 ms; the mean dwell time of the unbound state of the front WT head at 1 mM ATP was 11 ms.
In the case of “Cys-light K339 C47/C328 monomer, reduced (un-crosslinked) (from UniProt P33176 1-339) (domain or fragment)”, the Km(MT) of the steady-state microtubule-activated ATPase, reduced condition in experiment [1] amounted to 0.28 µM. Also, the k2 (ATP-induced dissociation rate from microtubule, light scattering) in experiment [8] worked out at 51.5 s⁻¹.
On to “E236A–WT heterodimer with a 7 poly-Gly insertion (G7), WT head labeled with a gold nanoparticle (from UniProt P33176 1-490; P33176 1-490) (complex)”, for which the Km (MT) of the microtubule-activated ATPase of the heterodimer (G7) in experiment [6] was determined as 0.18 µM. Also, the kcat of the inverse bound dwell time against ATP, taken as the ATP-induced detachment rate k2 of the front WT head in experiment [7] stood at 7.6 s^–1.
As to “GFP-fused K339 Cys-light C47/C335 kinesin, reduced (from UniProt P33176 1-339) (domain or fragment)”, in experiment [3], the k2 SMF (inverse of the mean dwell time on the microtubule, 1 mM ATP) was 52.1 s⁻¹.
In experiment [5], “GFP-fused K339 Cys-light C222/C334 kinesin, oxidized (rear head crosslink) (from UniProt P33176 1-339) (domain or fragment)” returned a fold reduction of the binding frequency to the microtubule after crosslinking of 6 fold and a k2 SMF (inverse of the mean dwell time on the microtubule, 1 mM ATP) of 57.1 s⁻¹.
“GFP-fused K339 Cys-light C4/C330 kinesin, reduced (from UniProt P33176 1-339) (domain or fragment)” yielded a k2 SMF (inverse of the mean dwell time on the microtubule, 1 mM ATP) in experiment [3] of 59.5 s⁻¹.
With “Cys-light K339 C222/C334 monomer, reduced (un-crosslinked) (from UniProt P33176 1-339) (domain or fragment)”, in experiment [1], the Km(MT) of the steady-state microtubule-activated ATPase, reduced condition worked out at 0.23 µM. Also, the k2 (ATP-induced dissociation rate from microtubule, light scattering) in experiment [8] worked out at 69.3 s⁻¹.
For “Cys-light K339 C4/C330 monomer, reduced (un-crosslinked) (from UniProt P33176 1-339) (domain or fragment)” the same measures were 0.42 µM and 68.6 s⁻¹.
In the same order, the values of “Cys-light K339 C47/C335 monomer, reduced (un-crosslinked) (from UniProt P33176 1-339) (domain or fragment)” are 0.33 µM and 41.6 s⁻¹.
On to “Cys-light K339 C47/C335 monomer, oxidized (disulfide-crosslinked; loose backward crosslink) (from UniProt P33176 1-339) (domain or fragment)”, for which, in experiment [1], the Km(MT) of the steady-state microtubule-activated ATPase, oxidized condition stood at 0.1 µM. In addition, the k2 (ATP-induced dissociation rate from microtubule, light scattering) in experiment [2] was 19.4 s⁻¹.
Turning to “GFP-fused K339 Cys-light kinesin (WT, no cysteine introduction) (from UniProt P33176 1-339) (domain or fragment)”, the k2 SMF (inverse of the mean dwell time on the microtubule, 1 mM ATP) in experiment [5] is 41.6 s⁻¹; in experiment [3], 44 s⁻¹.
Regarding “GFP-fused K339 Cys-light C47/C335 kinesin, oxidized (crosslinked) (from UniProt P33176 1-339) (domain or fragment)”, the k2 SMF (inverse of the mean dwell time on the microtubule, 1 mM ATP) in experiment [5] worked out at 22.5 s⁻¹.
